The values below come from patent US20040147432A1 (MERCK, published 2004).

Bridges are numbered along the chain shown (N, C = ends). [ ]: non-standard residue; d: D form. Nle = CCCC[C@H](N)C(=O)O; GABA = NCCCC(=O)O; βAla = NCCC(=O)O

B1: SEQ. ID. NO. 4 (peptide)
peptide: Ac-RCALGRVYRPC-NH2
modifications: disulfide 2-11
SMILES: CC(=O)N[C@@H](CCCNC(=N)N)C(=O)N[C@H]1CSSC[C@@H](C(N)=O)NC(=O)[C@@H]2CCCN2C(=O)[C@H](CCCNC(=N)N)NC(=O)[C@H](Cc2ccc(O)cc2)NC(=O)[C@H](C(C)C)NC(=O)[C@H](CCCNC(=N)N)NC(=O)CNC(=O)[C@H](CC(C)C)NC(=O)[C@H](C)NC1=O
notes: also called Ala^8
B2: SEQ. ID. NO. 23 (peptide)
peptide: Ac-RCMLGAVYRPC-NH2
modifications: disulfide 2-11
SMILES: CSCC[C@@H]1NC(=O)[C@@H](NC(=O)[C@H](CCCNC(=N)N)NC(C)=O)CSSC[C@@H](C(N)=O)NC(=O)[C@@H]2CCCN2C(=O)[C@H](CCCNC(=N)N)NC(=O)[C@H](Cc2ccc(O)cc2)NC(=O)[C@H](C(C)C)NC(=O)[C@H](C)NC(=O)CNC(=O)[C@H](CC(C)C)NC1=O
notes: also called Ala^11
B3: SEQ. ID. NO. 3 (peptide)
peptide: Ac-CMLGRVYRPC-NH2
modifications: disulfide 1-10; not fully specified
notes: positions numbered as in hMCH; also called ?Arg^6

T1 sequence (Q969V1 whole entry, form in doubt): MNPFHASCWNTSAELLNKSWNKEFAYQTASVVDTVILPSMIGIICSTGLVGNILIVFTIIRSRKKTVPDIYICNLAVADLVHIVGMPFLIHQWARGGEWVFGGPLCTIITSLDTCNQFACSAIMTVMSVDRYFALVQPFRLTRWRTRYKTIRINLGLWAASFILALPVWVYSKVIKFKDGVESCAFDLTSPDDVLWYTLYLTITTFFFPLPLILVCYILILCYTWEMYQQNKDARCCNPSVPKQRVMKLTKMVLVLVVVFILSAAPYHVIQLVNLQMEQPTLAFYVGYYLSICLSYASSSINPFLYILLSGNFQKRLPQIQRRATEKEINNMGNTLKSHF

The first experiment has as its target T1, human melanin concentrating hormone type 2 receptor (MCH-2R) (human, UniProt Q969V1 1-340). The experiment can be described thus: cell-based or functional assay.
For RCMLGRVYRXC (Sar^15 (sarcosine)) [SEQ. ID. NO. 32], the “Activation % at 10 µM (aequorin functional assay)” value (shortened to “Activation % at 10 µM”) stood at 91% and the “EC50 (aequorin functional assay)” value is 12 nM.
For RCMLGRVXRPC (Phe(pNH2)^13) [SEQ. ID. NO. 30] the same measures were 70% and 24 nM.
On to RCMLXRVYRPC (D-Nle^10, also called D-Nle^10) [SEQ. ID. NO. 15], for which the “Activation % at 10 µM” value came to 78%.
Same read-out and setting: as for Ac-RCML[GABA]RVYRPC-NH2 (disulfide 2-11 (inferred), also called εAbu^10) [SEQ. ID. NO. 21], the figure is 112%.
As to RCMLGRVXRPC ((2)Nal^13 ((2')naphthylalanine)) [SEQ. ID. NO. 28], the “Activation % at 10 µM” value came out at 90% and the “EC50 (aequorin functional assay)” value came out at 19 nM.
For RCMLGRVXRPC (Cha^13 (2-cyclohexyl-alanine), also called Cha^13) [SEQ. ID. NO. 31], the “Activation % at 10 µM” value was 76%.
Regarding RCXLGRVYRPC (Nle^8 (norleucine), also called Nle^8) [SEQ. ID. NO. 5], the “Activation % at 10 µM” value amounted to 105% and the “EC50 (aequorin functional assay)” value amounted to 12 nM.
Take RCMLGRVXRPC (Phe(pF)^13, also called Phe(pF)^13) [SEQ. ID. NO. 29]: the “Activation % at 10 µM” value is 100%.
Consider RCMLXRVYRPC (Nle^10 (norleucine)) [SEQ. ID. NO. 9], for which the “Activation % at 10 µM” value worked out at 103% and the “EC50 (aequorin functional assay)” value stood at 16 nM.
Turning to B1, the “Activation % at 10 µM” value is 104% and the “EC50 (aequorin functional assay)” value was 12 nM.
Taken in the same sequence, the figures for B2 were 36% and more than 1000 nM.
With Ac-RCML[βAla]RVYRPC-NH2 (disulfide 2-11 (inferred)) [SEQ. ID. NO. 20], the “Activation % at 10 µM” value came out at 92%.
Turning to RCMLXRVYRPC (Sar^10 (sarcosine)) [SEQ. ID. NO. 6], the “Activation % at 10 µM” value stood at 94% and the “EC50 (aequorin functional assay)” value came to 40 nM.
For RCALXRVYRPC (not fully specified; D-Ala^10, also called Ala^8, D-Ala^10) [SEQ. ID. NO. 35] the same measures were 120% and 140 nM.
For RCALXXVYRPC (D-Ala^10, Harg^11 (homoarginine), also called Ala^8, D-Ala^10, Harg^11) [SEQ. ID. NO. 38] the same measures were 49% and 730 nM.
B3: the “EC50 (aequorin functional assay)” value came to 1500 nM.
Turning to RCMLXRVYRPC (D-Leu^10) [SEQ. ID. NO. 14], the “Activation % at 10 µM” value is 83%.
As to RCMLGXVYRPC (N-Me-Arg^11) [SEQ. ID. NO. 22], the “Activation % at 10 µM” value was 86%.
As to Ac-RCMLG[Nle]VYRPC-NH2 (disulfide 2-11 (inferred), also called Nle^11) [SEQ. ID. NO. 26], the “Activation % at 10 µM” value came out at 34% and the “EC50 (aequorin functional assay)” value is 58 nM.
With RCMLGRVYRPX (D-Cys^16, also called D-Cys^16) [SEQ. ID. NO. 33], the “Activation % at 10 µM” value amounted to 90%.

In the next experiment the target is T2, human MCH-1R (human, UniProt Q99705 1-353). The experiment can be described thus: cell-based or functional assay.
T2 sequence (Q99705 whole entry, form in doubt): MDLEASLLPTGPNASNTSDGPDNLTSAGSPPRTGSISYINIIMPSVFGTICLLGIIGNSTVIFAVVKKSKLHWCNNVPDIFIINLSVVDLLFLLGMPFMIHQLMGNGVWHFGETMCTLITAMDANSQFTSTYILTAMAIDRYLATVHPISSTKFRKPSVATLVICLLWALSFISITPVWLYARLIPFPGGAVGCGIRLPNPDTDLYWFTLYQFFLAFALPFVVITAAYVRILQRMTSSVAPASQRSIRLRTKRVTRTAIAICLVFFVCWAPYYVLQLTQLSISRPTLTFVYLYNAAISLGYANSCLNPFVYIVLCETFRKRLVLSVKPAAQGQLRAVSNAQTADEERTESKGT
On to RCMLGRVYRXC (Sar^15 (sarcosine)) [SEQ. ID. NO. 32], for which the “Activation % at 10 µM” value was found to be 113%.
Same read-out and setting: in the case of RCMLGRVXRPC (Phe(pNH2)^13) [SEQ. ID. NO. 30] it was 88%.
On the same count and under the same terms, as for RCMLXRVYRPC (D-Nle^10, also called D-Nle^10) [SEQ. ID. NO. 15], the figure is 33%; as for Ac-RCML[GABA]RVYRPC-NH2 (disulfide 2-11 (inferred), also called εAbu^10) [SEQ. ID. NO. 21], 101%; as for RCMLGRVXRPC ((2)Nal^13 ((2')naphthylalanine)) [SEQ. ID. NO. 28], 105%.
As to RCMLGRVXRPC (Cha^13 (2-cyclohexyl-alanine), also called Cha^13) [SEQ. ID. NO. 31], the “Activation % at 10 µM” value stood at 93%.
Take RCXLGRVYRPC (Nle^8 (norleucine), also called Nle^8) [SEQ. ID. NO. 5]: the “Activation % at 10 µM” value worked out at 105%.
Regarding RCMLGRVXRPC (Phe(pF)^13, also called Phe(pF)^13) [SEQ. ID. NO. 29], the “Activation % at 10 µM” value amounted to 98%.
As for RCMLXRVYRPC (Nle^10 (norleucine)) [SEQ. ID. NO. 9], the “Activation % at 10 µM” value was found to be 106% and the “EC50 (aequorin functional assay)” value was 15 nM.
For B1 the same measures were 42% and 4100 nM.
As to B2, the “EC50 (aequorin functional assay)” value is more than 10000 nM.
As to Ac-RCML[βAla]RVYRPC-NH2 (disulfide 2-11 (inferred)) [SEQ. ID. NO. 20], the “Activation % at 10 µM” value worked out at 3.2% and the “EC50 (aequorin functional assay)” value is more than 1000 nM.
As for RCMLXRVYRPC (Sar^10 (sarcosine)) [SEQ. ID. NO. 6], the “Activation % at 10 µM” value came out at 95%.
On to RCALXRVYRPC (not fully specified; D-Ala^10, also called Ala^8, D-Ala^10) [SEQ. ID. NO. 35], for which the “EC50 (aequorin functional assay)” value was more than 10000 nM.
For the molecule RCALXXVYRPC (D-Ala^10, Harg^11 (homoarginine), also called Ala^8, D-Ala^10, Harg^11) [SEQ. ID. NO. 38], the “Activation % at 10 µM” value turned out to be 20% and the “EC50 (aequorin functional assay)” value was more than 10000 nM.
Taken in the same sequence, the figures for B3 were 6.5% and 300 nM.
Regarding RCMLXRVYRPC (D-Leu^10) [SEQ. ID. NO. 14], the “Activation % at 10 µM” value came to 23%.
The same measure, in the same setting: as for RCMLGXVYRPC (N-Me-Arg^11) [SEQ. ID. NO. 22], the figure is 110%.
Consider Ac-RCMLG[Nle]VYRPC-NH2 (disulfide 2-11 (inferred), also called Nle^11) [SEQ. ID. NO. 26], for which the “EC50 (aequorin functional assay)” value is more than 1000 nM.
Turning to RCMLGRVYRPX (D-Cys^16, also called D-Cys^16) [SEQ. ID. NO. 33], the “Activation % at 10 µM” value is 76%.

For another experiment, the target named is T1, human melanin concentrating hormone …. The experiment can be described thus: SPA competition with [125I]-human MCH (Phe13, Tyr19) on receptor membranes. As for the experimental part: (§1) For the SPA-based assay, WGA-PVT beads (NEN Life Sciences Products) were resuspended in Dulbecco's PBS with calcium and magnesium (500 mg beads in 4 ml PBS). […] The suspension was mixed gently for 20 minutes, 12.3 ml of assay buffer and protease inhibitors were added (final concentration given): 2 μg/ml leupeptin, 10 μM phosphoramidon, 40 μg/ml bacitracin, 5 μg/ml aprotinin, 0.1 mM Pefabloc.
(§2) Coated beads were kept on ice until use. […] Binding reactions were allowed to proceed at room temperature for 3 hours. Quantitation was performed by scintillation counting (TopCount device).
Turning to RCMLXRVYRPC (D-Nle^10, also called D-Nle^10) [SEQ. ID. NO. 15], the IC50 amounted to 2.3 nM.
Molecule RCMLGRVXRPC (Cha^13 (2-cyclohexyl-alanine), also called Cha^13) [SEQ. ID. NO. 31] had an IC50 of 9 nM.
The same measure, in the same setting: as for B1, the figure is 18 nM; as for B2, 9.7 nM.
For the molecule B3, the “% @ concentration” value was 38.5 % @ 10 µM.
Ac-RCMLG[Nle]VYRPC-NH2 (disulfide 2-11 (inferred), also called Nle^11) [SEQ. ID. NO. 26] yielded a 50% inhibitory concentration (IC50) of 9 nM.
Regarding RCMLGRVYRPX (D-Cys^16, also called D-Cys^16) [SEQ. ID. NO. 33], the 50% inhibitory concentration (IC50) is 2.3 nM.

Another experiment concerns the target T2, human MCH-1R. The description is as above. The protocol: as §1, §2
Ac-RCML[GABA]RVYRPC-NH2 (disulfide 2-11 (inferred), also called εAbu^10) [SEQ. ID. NO. 21] came in with a half-maximal inhibitory concentration (IC50) of 2.1 nM.
Same read-out and setting: in the case of RCXLGRVYRPC (Nle^8 (norleucine), also called Nle^8) [SEQ. ID. NO. 5] it was 0.5 nM; in that of RCMLGRVXRPC (Phe(pF)^13, also called Phe(pF)^13) [SEQ. ID. NO. 29], 0.6 nM; in that of B1, 15 nM.
On to RCALXRVYRPC (not fully specified; D-Ala^10, also called Ala^8, D-Ala^10) [SEQ. ID. NO. 35], for which the “% @ concentration” value was 70 % @ 1 µM.
Same read-out and setting: as for RCALXXVYRPC (D-Ala^10, Harg^11 (homoarginine), also called Ala^8, D-Ala^10, Harg^11) [SEQ. ID. NO. 38], the figure is 83 % @ 10 µM.
In turn, B3 gave an IC50 of 1.6 nM.
In the case of Ac-RCMLG[Nle]VYRPC-NH2 (disulfide 2-11 (inferred), also called Nle^11) [SEQ. ID. NO. 26], the IC50 amounted to 301 nM.
